Columns and labels:
[1] = molecular target: FITC (fluorescein isothiocyanate)-labeled RAR (RARΔAB, His-tag); experiment: fluorescence polarisation; fluorescence anisotropy; FEZ1 (1 nM to 5000 nM) titrated into 50 nM FITC-labeled RAR; 20 mM Tris pH 8.0, 50 mM NaCl, 2 mM EDTA; 10 °C; absence of all-trans retinoic acid
[2] = molecular target: FITC (fluorescein isothiocyanate)-labeled RAR (RARΔAB, His-tag); experiment: fluorescence polarisation; fluorescence anisotropy; FEZ1 (1 nM to 5000 nM) titrated into 50 nM FITC-labeled RAR; 20 mM Tris pH 8.0, 50 mM NaCl, 2 mM EDTA; 10 °C; presence of all-trans retinoic acid (AT)

B1: Fasciculation and elongation zeta-1 (1-392) protein fused to an N-terminal 6xHis-tag (natural protein)
chain: MEAPLVSLDEEFEDLRPSCSEDPEEKPQCFYGSSPHHLEDPSLSELENFSSEIISFKSMEDLVNEFDEKLNVCFRNYNAKTENLAPVKNQLQIQEEEETLQDEEVWDALTDNYIPSLSEDWRDPNIEALNGNCSDTEIHEKEEEEFNEKSENDSGINEEPLLTADQVIEEIEEMMQNSPDPEEEEEVLEEEDGGETSSQADSVLLQEMQALTQTFNNNWSYEGLRHMSGSELTELLDQVEGAIRDFSEELVQQLARRDELEFEKEVKNSFITVLIEVQNKQKEQRELMKKRRKEKGLSLQSSRIEKGNQMPLKRFSMEGISNILQSGIRQTFGSSGTDKQYLNTVIPYEKKASPPSVEDLQMLTNILFAMKEDNEKVPTLLTDYILKVLCPT
Question: How did the Kd [1] turn out when B1 was run?
Answer: 3.4 µM

Question: And the Kd [2]?
Answer: 3.8 µM

Reference: PMC5757173
